Assay results: PMC11574045, “A cofactor-induced repressive type of transcription factor condensation can be induced by synthetic peptides to suppress tumorigenesis” (The EMBO Journal, 2024)

Test system: HEK293FT cells transfected with TF library
Experiment: Screening of TF condensates based on fluorescent puncta
Assay type: cell-based
Details: Figure 1B numerical data; TF library screen, one value per transcriptional factor
How it was run: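 HEK293FT cells were reverse-transfected with Flag- or GAL4-tagged TF plasmids (1.6 μg/ml, PEI). After 60 h, cells were cultured 12 h with or without glucose, then fixed and immunostained with anti-Flag or anti-GAL4 and Alexa 488 secondaries. Fluorescent puncta were imaged over fifty random fields per well by high-content imaging.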

Molecule	Z score of condensed fraction
NSD2 (protein, UniProt O96028 1-1365, looked up) Histone-lysine …: MEFSIKQSPLSVQSVVKCIKMKQAPEILGSANGKTPSCEVNRECSVFLSKAQLSSSLQEGVMQKFNGHDALPFIPADKLKDLTSRVFNGEPGAHDAKLRFESQEMKGIGTPPNTTPIKNGSPEIKLKITKTYMNGKPLFESSICGDSAADVSQSEENGQKPENKARRNRKRSIKYDSLLEQGLVEAALVSKISSPSDKKIPAKKESCPNTGRDKDHLLKYNVGDLVWSKVSGYPWWPCMVSADPLLHSYTKLKGQKKSARQYHVQFFGDAPERAWIFEKSLVAFEGEGQFEKLCQESAKQAPTKAEKIKLLKPISGKLRAQWEMGIVQAEEAASMSVEERKAKFTFLYVGDQLHLNPQVAKEAGIAAESLGEMAESSGVSEEAAENPKSVREECIPMKRRRRAKLCSSAETLESHPDIGKSTPQKTAEADPRRGVGSPPGRKKTTVSMPRSRKGDAASQFLVFCQKHRDEVVAEHPDASGEEIEELLRSQWSLLSEKQRARYNTKFALVAPVQAEEDSGNVNGKKRNHTKRIQDPTEDAEAEDTPRKRLRTDKHSLRKRDTITDKTARTSSYKAMEAASSLKSQAATKNLSDACKPLKKRNRASTAASSALGFSKSSSPSASLTENEVSDSPGDEPSESPYESADETQTEVSVSSKKSERGVTAKKEYVCQLCEKPGSLLLCEGPCCGAFHLACLGLSRRPEGRFTCSECASGIHSCFVCKESKTDVKRCVVTQCGKFYHEACVKKYPLTVFESRGFRCPLHSCVSCHASNPSNPRPSKGKMMRCVRCPVAYHSGDACLAAGCSVIASNSIICTAHFTARKGKRHHAHVNVSWCFVCSKGGSLLCCESCPAAFHPDCLNIEMPDGSWFCNDCRAGKKLHFQDIIWVKLGNYRWWPAEVCHPKNVPPNIQKMKHEIGEFPVFFFGSKDYYWTHQARVFPYMEGDRGSRYQGVRGIGRVFKNALQEAEARFREIKLQREARETQESERKPPPYKHIKVNKPYGKVQIYTADISEIPKCNCKPTDENPCGFDSECLNRMLMFECHPQVCPAGEFCQNQCFTKRQYPETKIIKTDGKGWGLVAKRDIRKGEFVNEYVGELIDEEECMARIKHAHENDITHFYMLTIDKDRIIDAGPKGNYSRFMNHSCQPNCETLKWTVNGDTRVGLFAVCDIPAGTELTFNYNLDCLGNEKTVCRCGASNCSGFLGDRPKTSTTLSSEEKGKKTKKKTRRRRAKGEGKRQSEDECFRCGDGGQLVLCDRKFCTKAYHLSCLGLGKRPFGKWECPWHHCDVCGKPSTSFCHLCPNSFCKEHQDGTAFSCTPDGRSYCCEHDLGAASVRSTKTEKPPPEPGKPKGKRRRRRGWRRVTEGK	-0.8212
ATF7 (protein, UniProt P17544 1-483, looked up) Cyclic AMP-dependent …: MGDDRPFVCNAPGCGQRFTNEDHLAVHKHKHEMTLKFGPARTDSVIIADQTPTPTRFLKNCEEVGLFNELASSFEHEFKKAADEDEKKAAAGPLDMSLPSTPDIKIKEEEPVEVDSSPPDSPASSPCSPPLKEKEVTPKPVLISTPTPTIVRPGSLPLHLGYDPLHPTLPSPTSVITQAPPSNRQMGSPTGSLPLVMHLANGQTMPVLPGPPVQMPSVISLARPVSMVPNIPGIPGPPVNSSGSISPSGHPIPSEAKMRLKATLTHQVSSINGGCGMVVGTASTMVTARPEQSQILIQHPDAPSPAQPQVSPAQPTPSTGGRRRRTVDEDPDERRQRFLERNRAAASRCRQKRKLWVSSLEKKAEELTSQNIQLSNEVTLLRNEVAQLKQLLLAHKDCPVTALQKKTQGYLESPKESSEPTGSPAPVIQHSSATAPSNGLSVRSAAEAVATSVLTQMASQRTELSMPIQSHVIMTPQSQSAGR	-0.2253
NUP62 (protein, UniProt P37198 2-522, looked up) Nuclear pore glycoprotein p62: SGFNFGGTGAPTGGFTFGTAKTATTTPATGFSFSTSGTGGFNFGAPFQPATSTPSTGLFSLATQTPATQTTGFTFGTATLASGGTGFSLGIGASKLNLSNTAATPAMANPSGFGLGSSNLTNAISSTVTSSQGTAPTGFVFGPSTTSVAPATTSGGFSFTGGSTAQPSGFNIGSAGNSAQPTAPATLPFTPATPAATTAGATQPAAPTPTATITSTGPSLFASIATAPTSSATTGLSLCTPVTTAGAPTAGTQGFSLKAPGAASGTSTTTSTAATATATTTSSSSTTGFALNLKPLAPAGIPSNTAAAVTAPPGPGAAAGAAASSAMTYAQLESLINKWSLELEDQERHFLQQATQVNAWDRTLIENGEKITSLHREVEKVKLDQKRLDQELDFILSQQKELEDLLSPLEELVKEQSGTIYLQHADEEREKTYKLAENIDAQLKRMAQDLKDIIEHLNTSGAPADTSDPLQQICKILNAHMDSLQWIDQNSALLQRKVEEVTKVCEGRRKEQERSFRITFD	-0.01313
